Consider three molecules from paper PMC6591361, “Recombinant production of human α2-macroglobulin variants and interaction studies with recombinant G-related α2-macroglobulin binding protein and latent transforming growth factor-β2” (Scientific Reports, 2019).

Series [1] has as its target N-terminal part of human α2-macroglobulin (N-hα2M) (human) (UniProt P01023). Kind of series: not stated; apparent mass of the purified hα2M fragments without reducing agents; method not named.
Series [2] deals with the molecule itself. In words: SEC; Superose 6 10/300 (full-length recombinant hα2M) or Superdex 75 10/300 (pro-TGF-β2), buffer D (20 mM Tris-HCl, 150 mM sodium chloride, pH 7.5). For orientation: In gel filtration, larger molecules generally elute earlier.

One may read the stoichiometry N as a count of units in the complex or per binding partner. For “N-terminal part of human α2-macroglobulin (N-hα2M) (from UniProt P01023 24-788) (domain or fragment)”, the stoichiometry N in series [1] was 2.

B1: Strep-tagged latent human transforming growth factor-β2 (pro-TGF-β2) (natural protein)
chain: LSLSTCSTLDMDQFMRKRIEAIRGQILSKLKLTSPPEDYPEPEEVPPEVISIYNSTRDLLQEKASRRAAACERERSDEEYYAKEVYKIDMPPFFPSENAIPPTFYRPYFRIVRFDVSAMEKNASNLVKAEFRVFRLQNPKARVPEQRIELYQILKSKDLTSPTQRYIDSKVVKTRAEGEWLSFDVTDAVHEWLHHKDRNLGFKISLHCPCCTFVPSNNYIIPNKSEELEARFAGIDGTSTYTSGDQKTIKSTRKKNSGKTPHLLLMLLPSYRLESQQTNRRKKRALDAAYCFRNVQDNCCLRPLYIDFKRDLGWKWIHEPKGYNANFCAGACPYLWSSDTQHSRVLSLYNTINPEASASPCCVSQDLEPLTILYYIGKTPKIEQLSNMIVKSCKCS
notes: residues from the construct between the tag and L21; human pro-TGF-β2 (LAP plus mature TGF-β2), UniProt P61812, residues L21-S414; The purified protein was partially cleaved before A303 by host peptidases; also called Strep-tagged pro-TGF-β2; pS6-TGFB2-STREP; not shown: Strep-tag, N-terminal, kept
As for B1, the “stoichiometry N” value in series [2] was determined as 2.

B2: N-terminally octahistidine-tagged latent human transforming growth factor-β2 (pro-TGF-β2) (natural protein)
chain: LSLSTCSTLDMDQFMRKRIEAIRGQILSKLKLTSPPEDYPEPEEVPPEVISIYNSTRDLLQEKASRRAAACERERSDEEYYAKEVYKIDMPPFFPSENAIPPTFYRPYFRIVRFDVSAMEKNASNLVKAEFRVFRLQNPKARVPEQRIELYQILKSKDLTSPTQRYIDSKVVKTRAEGEWLSFDVTDAVHEWLHHKDRNLGFKISLHCPCCTFVPSNNYIIPNKSEELEARFAGIDGTSTYTSGDQKTIKSTRKKNSGKTPHLLLMLLPSYRLESQQTNRRKKRALDAAYCFRNVQDNCCLRPLYIDFKRDLGWKWIHEPKGYNANFCAGACPYLWSSDTQHSRVLSLYNTINPEASASPCCVSQDLEPLTILYYIGKTPKIEQLSNMIVKSCKCS
notes: residues from the construct between the tag and L21; human pro-TGF-β2 (LAP plus mature TGF-β2), UniProt P61812, residues L21-S414; Partially cleaved before A303 by host peptidases; also called N-terminally His6-tagged pro-TGF-β2; pS6-TGFB2-H8; not shown: His8, N-terminal, kept
As to B2, in series [2], the “stoichiometry N” value came out at 2.
